Assay results as given in patent publication US20260116960A1 (SHANGHAI HONGCHENG BIOPHARMACEUTICAL, published 2026).

Columns and labels:
[1] = target: T1, human CTLA-4 on the cell surface (human, UniProt P16410 36-223); experiment: flow cytometry, CHO-hCTLA-4 cells, batch FACS#3
T1 construct: whole, on cells; also called CHO-hCTLA-4 cells; CHOK1-hCTLA4 cells

[2] = target: T1, human CTLA-4 on the cell surface; experiment: flow cytometry competition, CHO-hCTLA-4 cells, biotin-human CD80
Experimental: CHO-hCTLA-4 cells were obtained by trypsin digestion, washed twice with PBS containing 2% FBS (FACS buffer), and resuspended in FACS buffer. 200 μL of the cells were added to a 96-well U-bottom plate, approximately 2×10⁵ cells/well. After centrifugation at 300 g for 5 minutes, the supernatant was discarded. […] After washing three times with FACS buffer, 100 μL/well of 1:800 diluted PE Streptavidin was added and incubated at 4° C. for 50 min. After washing three times with FACS buffer, 150 μL/well of PBS was added to resuspend the cells, and the fluorescence signal was detected on a flow cytometer (BECKMAN COULTER cytoFLEX). The four-parameter model was used to fit the binding activity and the IC₅₀ value of the blocking activity of each antibody was calculated.

[3] = target: T1, human CTLA-4 on the cell surface; experiment: flow cytometry on activated human T cells (CD3+), PE anti-human IgG Fc
Experimental: Human peripheral blood mononuclear cells (PBMCs, Miaoshun (Shanghai) Biotechnology Co., Ltd., Catalog No.: A19K154025) were rapidly thawed in a 37° C. water bath, resuspended in T cell isolating solution, and counted. After centrifugation at 400 g for 10 minutes, the supernatant was removed and the cells were resuspended to 5×10⁷ cells/mL with T cell separation buffer. T cells were isolated according to the procedure of a T cell isolation kit (Stemcell, Catalog No.: 19051), and the obtained T cells were resuspended in culture medium. The cells were counted using NucleoCounter NC-200 and the T cell density was adjusted to approximately 1×10⁶ cells/mL. Dynabeads containing anti-CD3 and anti-CD28 antibodies (Invitrogen™, Catalog No.: 11132D) and 10 ng/ml hIL-2 (Peprotech, Catalog No.: 200-02) were added and cultured in a 37° C., 5% CO₂ incubator for 3 days. After removing Dynabeads and supernatant, the activated T cells were resuspended in FACS buffer. The cell density was adjusted to about 1×10⁶ cells/mL, and 100 μL of cell solution was added into a 96-well U-bottom plate, 1×10⁵ cells/well. After centrifugation at 500 g for 5 minutes, the supernatant was discarded and 100 μL of the trispecific antibody solution of the present application serially diluted 3-fold with FACS buffer was added in triplicate, with a starting concentration of 200 nM. After mixing, incubated at 4° C. for 60 minutes. After centrifugation and washing three times with FACS buffer, 100 μL/well of PE anti-human IgG Fc (Biolegend, Catalog No.: 366903) was added and incubated at 4° C. for 50 minutes. After washing the plate three times with FACS buffer, 100 μL/well of BV421 anti-human CD3 antibody (OKT3) (Biolegend, Catalog No.: 317344) was added and incubated at 4° C. for 50 minutes. After washing the plate three times with FACS buffer, 70 μL/well of PBS solution was added to resuspend the cells, and the fluorescent signal on CD3 T cells was detected on a flow cytometer (BD Cellesta). The binding activity was fitted using a four-parameter model, and the EC₅₀ value of each antibody binding to T cells was calculated.

[4] = target: T1, human CTLA-4 on the cell surface; experiment: flow cytometry competition, 293T-hPD-1-hCTLA-4 cells (PD-1 co-expressed), biotin-human CD80
Experimental: PD-1 and CTLA-4 are co-expressed on functionally exhausted T cells in the tumor microenvironment, and the expression level of PD-1 is higher than that of CTLA-4. […] 200 μL of the cells were added to a 96-well U-bottom plate, approximately 1.4×10⁵ cells/well. After centrifugation at 300 g for 5 minutes, the supernatant was discarded. […] After washing three times with FACS buffer, 100 μL/well of 1:800 diluted PE Streptavidin was added and incubated at 4° C. for 50 min. After washing three times with FACS buffer, 150 μL/well of PBS was added to resuspend the cells, and the fluorescence signal was detected on a flow cytometer (BECKMAN COULTER cytoFLEX). The binding activity was fitted using a four-parameter model, and the IC₅₀ value of the blocking activity of each antibody was calculated.

T1 sequence (P16410 36-223): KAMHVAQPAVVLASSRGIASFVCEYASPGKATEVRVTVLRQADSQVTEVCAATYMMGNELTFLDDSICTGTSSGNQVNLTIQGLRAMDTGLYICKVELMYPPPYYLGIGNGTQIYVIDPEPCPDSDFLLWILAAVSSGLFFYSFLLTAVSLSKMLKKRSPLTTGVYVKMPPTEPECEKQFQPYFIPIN

B1: 202F1-hIgG4 antibody (antibody, V domains shown)
VH: EVQLLESGGGLVQPGGSLRLSCAASGSIFSINHMAWYRQAPGKQRELVAGVNSRGTTNYVDSVKGRFTISRDNSKNTLYLQMNSLRAEDTAVYYCRALGGAVAAWGQGTLVTVSS
- EC50 [1]: 2.31 nM
- IC50 [2]: 10.1 nM
- EC50 [3]: 1.46 nM
- IC50 [4]: 4.74 nM
